Nine molecules from US20250121087A1 (INTOCELL, published 2025) can be followed below.

The target of assay [1] is T1, human B7-H3 (Y-Biologics Inc.) (human, UniProt Q5ZPR3 29-466).
T1 chain: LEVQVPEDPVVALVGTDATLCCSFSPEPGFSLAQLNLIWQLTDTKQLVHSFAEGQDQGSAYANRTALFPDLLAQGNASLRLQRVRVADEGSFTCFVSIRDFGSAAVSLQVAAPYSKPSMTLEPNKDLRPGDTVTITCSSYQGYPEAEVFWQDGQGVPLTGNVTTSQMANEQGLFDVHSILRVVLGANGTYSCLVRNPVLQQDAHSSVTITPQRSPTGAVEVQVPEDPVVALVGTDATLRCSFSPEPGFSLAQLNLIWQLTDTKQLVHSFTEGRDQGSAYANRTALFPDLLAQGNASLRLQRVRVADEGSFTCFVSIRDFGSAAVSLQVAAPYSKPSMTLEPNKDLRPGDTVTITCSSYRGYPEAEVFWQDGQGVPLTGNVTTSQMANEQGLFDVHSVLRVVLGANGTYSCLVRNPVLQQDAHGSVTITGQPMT
In words: BLI (Octet QKe), antibody on AHC biosensor, human B7-H3 as analyte, 1:1 global fit. Background: Biolayer interferometry detects binding as a change in optical thickness at a sensor tip.

Assay [2] deals with T2, Human 4IgB7-H3 (Y-Biologics Inc.) (human, UniProt Q5ZPR3 29-466, limits assumed).
T2 construct: 4Ig isoform
T2 sequence (looked up): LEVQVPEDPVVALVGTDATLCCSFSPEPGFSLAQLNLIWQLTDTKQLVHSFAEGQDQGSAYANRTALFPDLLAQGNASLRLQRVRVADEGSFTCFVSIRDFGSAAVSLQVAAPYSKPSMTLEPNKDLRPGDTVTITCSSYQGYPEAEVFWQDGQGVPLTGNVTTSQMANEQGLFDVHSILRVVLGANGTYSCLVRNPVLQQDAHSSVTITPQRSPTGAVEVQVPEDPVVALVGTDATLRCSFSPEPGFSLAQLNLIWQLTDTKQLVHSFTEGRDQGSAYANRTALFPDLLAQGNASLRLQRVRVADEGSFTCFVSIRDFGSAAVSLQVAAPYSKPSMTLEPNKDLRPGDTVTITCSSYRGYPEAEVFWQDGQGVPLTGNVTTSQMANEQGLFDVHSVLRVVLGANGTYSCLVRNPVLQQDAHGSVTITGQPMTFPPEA
In words: SPR (Biacore 8K), antibody captured on anti-human Fc, antigen as analyte, 1:1 fit. How it is done: (§1) A Biacore 8K (GE Life science) instrument was used to measure the binding kinetics about several B7-H3 variants (analyte) binding to various mAbs (ligands). Antibodies were captured onto the immobilized anti-human Fc antibody (GE Life science). […] For binding kinetic measurements, the HBS-EP+ was used for running buffer (10 mM Hepes, pH7.4, 150 mM NaCl, 3 mM EDTA, 0.05% polysorbate20). […] After capturing ligand, various B7-H3 antigens were analyzed for 120 s and the dissociation was monitored for 600 s at a flow rate of 30 ul/min. […] For the kinetic analysis, 5 points of 2-fold diluted analytes were flown over the captured ligand ranging from 20 nM of human 4Ig B7-H3 (Y-Biologics Inc.), 320 nM of human 2Ig B7-H3 (Acrobiosystems), 40 nM of cynomolgus monkey B7-H3 (Sino biological Inc.), and 160 nM of mouse B7-H3 (Sino biological Inc.). Kinetic information was calculated by fitting data to a 1:1 binding model using Biacore Insight Evaluation software (GE Life Science) to determine ka (association constant), kd (dissociation constant), and KD (equilibrium dissociation constant).
A general note: Surface plasmon resonance follows binding to a sensor surface in real time, without labels.

The target of assay [3] is T3, Human 2IgB7-H3 (Acrobiosystems) (human, UniProt Q5ZPR3-2 29-245, limits assumed).
T3 construct: 2Ig isoform (the short splice form of the same UniProt entry)
T3 sequence (looked up): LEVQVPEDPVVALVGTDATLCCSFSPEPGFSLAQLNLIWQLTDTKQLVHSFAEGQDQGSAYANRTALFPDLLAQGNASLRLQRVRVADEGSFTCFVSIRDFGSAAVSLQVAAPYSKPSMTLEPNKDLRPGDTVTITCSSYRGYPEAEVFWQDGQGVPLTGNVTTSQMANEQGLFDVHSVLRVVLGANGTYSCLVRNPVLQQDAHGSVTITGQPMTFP
Described as above. How it is done: as §1

Assay [4] has as its target T4, Cyno B7-H3 (Sino biological Inc.) (cynomolgus monkey).
T4 construct: also called cynomolgus monkey B7-H3
The description is as above. How it is done:
as §1

The target of assay [5] is T5, Mouse B7-H3 (Sino biological Inc.) (mouse, UniProt Q8VE98 29-244, limits assumed).
T5 sequence (looked up): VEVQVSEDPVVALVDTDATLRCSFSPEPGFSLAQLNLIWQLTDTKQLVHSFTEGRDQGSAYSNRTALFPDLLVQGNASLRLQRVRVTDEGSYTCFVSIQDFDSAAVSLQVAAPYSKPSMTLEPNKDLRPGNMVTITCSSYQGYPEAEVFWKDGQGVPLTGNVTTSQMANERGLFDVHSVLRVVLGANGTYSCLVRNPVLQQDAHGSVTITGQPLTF
Described as above. How it is done:
as §1

B1: AB3 (SA2103, CD276-039C05) (antibody, human IgG1, V domains shown)
VH: QVQLVESGAEVKKPGSSVKVSCKASGGTFSSYAISWVRQAPGQGLEWMGRIIPILGIANYAQKFQGRVTITADKSTSTAYMELSSLRSEDTAVYYCANGGDSSSWYTFDYWGQGTLITVSS
VL: DIQMTQSPSTLSASVGDKLTLTCRASQSISRWLAWYQQKPGKAPKLLIYKASYLQTGVPSRFSGSGTGTEFTLTISSLQPDDFATYYCQQYNTFPLTFAGGTKVEIK
notes: Whole human IgG
For the molecule B1, in assay [1], the Kd (in general, the concentration at which binding is half-saturated) stood at 40 pM; the koff (in general, the first-order rate constant of dissociation) stood at 3e-05 s⁻¹; the on-rate (kon) (usually the second-order rate constant of association) was found to be 600000 M⁻¹ s⁻¹.

B2: AB8 (SA2579, CD276-039C05_LS_002H07) (antibody, human IgG1, V domains shown)
VH: QVQLVESGAEVKKPGSSVKVSCKASGGTFSSYAISWVRQAPGQGLEWMGRIIPILGIANYAQKFQGRVTITADKSTSTAYMELSSLRSEDTAVYYCANGGDSSSWYTFDYWGQGTLITVSS
VL: DIQMTQSPSTLSASVGDRVTITCRASQSIDNWLAWYQQKPGKAPKLLIYKASSLQSGVPSRFSGSGSGTEFTLTISSLQPDDFASYYCQQYDSNPLTFGGGTKVEIK
notes: Whole human IgG; also called CD276-39C05-LS-002H07
In assay [1], B2 gave a Kd of 300 pM, a dissociation rate constant (koff) of 0.0003 s⁻¹ and a kon of 900000 M⁻¹ s⁻¹.

B3: AB7 (SA2571, CD276-039C05_LS_002D03) (antibody, human IgG1, V domains shown)
VH: QVQLVESGAEVKKPGSSVKVSCKASGGTFSSYAISWVRQAPGQGLEWMGRIIPILGIANYAQKFQGRVTITADKSTSTAYMELSSLRSEDTAVYYCANGGDSSSWYTFDYWGQGTLITVSS
VL: DIQMTQSPSTLSASVGDRVTITCRASETISSWLAWYQQKPGKAPKLLIYKASSLQSGVPSRFSGSGSGTEFTLTISSLQPDDFATYYCQQYYSYPITFGQGTRLEIK
notes: Whole human IgG; also called CD276-39C05_LS_002D03
In the case of B3, in assay [1], the equilibrium dissociation constant (Kd) was found to be 300 pM, the off-rate constant (koff) is 0.0005 s⁻¹ and the kon was determined as 2e+06 M⁻¹ s⁻¹.

B4: AB6 (SA2566, CD276-039C05_LS_002B07) (antibody, human IgG1, V domains shown)
VH: QVQLVESGAEVKKPGSSVKVSCKASGGTFSSYAISWVRQAPGQGLEWMGRIIPILGIANYAQKFQGRVTITADKSTSTAYMELSSLRSEDTAVYYCANGGDSSSWYTFDYWGQGTLITVSS
VL: DIQMTQSPSSLSASVGDRVTITCRASQGISSYLAWYQQKPGKAPKLLIYAASTLQSGVPSRFSGSGSGTDFTLTISSLQPEDFATYYCQQYYSFPLTFGGGTKVEIK
notes: Whole human IgG; also called CD276-39C05-LS-002B07
B4: in assay [1], binding was characterised by a dissociation constant (Kd) of 200 pM, the koff amounted to 0.0006 s⁻¹ and the kon amounted to 3e+06 M⁻¹ s⁻¹.

B5: AB4 (SA2545, CD276-039C05_LS_001E10) (antibody, human IgG1, V domains shown)
VH: QVQLVESGAEVKKPGSSVKVSCKASGGTFSSYAISWVRQAPGQGLEWMGRIIPILGIANYAQKFQGRVTITADKSTSTAYMELSSLRSEDTAVYYCANGGDSSSWYTFDYWGQGTLITVSS
VL: DIQMTQSPSTLSASVGDRVNITCRASQTINSWLAWYQQKPGKAPKLLIYKASYLQTGVPSRFSGSGAGTEFTLTISSLQPDDFATYYCQQYNSYSLTFGGGTKVEIK
notes: Whole human IgG; also called CD276-39C05-LS-001E10
B5: in assay [1], the Kd was 60 pM, the koff came to 7e-05 s⁻¹ and the kon was 1e+06 M⁻¹ s⁻¹.

B6: AB5 (SA2563, CD276-039C05_LS_002A11) (antibody, human IgG1, V domains shown)
VH: QVQLVESGAEVKKPGSSVKVSCKASGGTFSSYAISWVRQAPGQGLEWMGRIIPILGIANYAQKFQGRVTITADKSTSTAYMELSSLRSEDTAVYYCANGGDSSSWYTFDYWGQGTLITVSS
VL: DIQMTQSPSTLSASVGDRLTITCRASQNINSWLAWYQQKPGKAPKLLIYKASYLQTGVPSRFSGSGSGTEFTLTITSLQPDDFASYYCQQYDSNPLTFGGGTKVEIK
notes: Whole human IgG; also called CD276-39C05_LS_002A11
In the case of B6, in assay [1], the affinity, expressed as Kd, was 100 pM; the koff was 0.0002 s⁻¹; the kon was 1e+06 M⁻¹ s⁻¹.

B7: AB9 (SC0041, CD276-m8524), control anti-B7-H3 antibody (antibody, human IgG1, V domains shown)
VH: QVQLQQSGAEVKKPGSSVKVSCKASGGTFSSYAISWVRQAPGQGLEWMGGIIPILGIANYAQKFQGRVTITADESTSTAYMELSSLRSEDTAVYYCARGGSGSYHMDVWGKGTTVTVSS
VL: EIVLTQSPATLSLSPGERATLSCRASQSVSSYLAWYQQKPGQAPRLLIYDASNRATGIPARFSGSGSGTDFTLTISSLEPEDFAVYYCQQRSNWPPRITFGQGTRLEIKR
notes: Control antibody produced by the applicants; Human IgG1, Kappa-T2S
On to B7, for which the Kd in assay [2] was 518 pM; in assay [3], 208000 pM; in assay [4] it was 278 pM; in assay [5], 49000 pM; in assay [1], 300 pM. The koff is 0.000617 s⁻¹ in assay [2]; 0.107 s⁻¹ in assay [3]; 0.000242 s⁻¹ in assay [4]; 0.0294 s⁻¹ in assay [5]; 0.0002 s⁻¹ in assay [1]. The kon was found to be 1.19e+06 M⁻¹ s⁻¹ in assay [2]; 515000 M⁻¹ s⁻¹ in assay [3]; 871000 M⁻¹ s⁻¹ in assay [4]; 600000 M⁻¹ s⁻¹ in assay [5]; 500000 M⁻¹ s⁻¹ in assay [1].

B8: AB2 (SA2107, CD276-040F10) (antibody, human IgG1, V domains shown)
VH: QVQLVESGAEVKKPGASVKLSCKASGYTFSSYWMHWVRQAPGQRLEWMGEINPGNGHTNYNEKFKSRVTITVDKSASTAYMELSSLRSEDTAVYYCVADPRRPKVPTALFVYWGQGTLVTVSS
VL: DIQMTQSPSSVSASVGDRVTISCRASQGIGTWLAWYQQKPGKAPRLLIYAASSLDSGVPSRFSASGSGTDFTLTISSLQPEDFATYYCQQAINFPITFGQGTRLEIK
notes: Whole human IgG
Regarding B8, the Kd in assay [2] came to 446 pM; in assay [3], 25000 pM; in assay [4] it was 919 pM; in assay [5], 47300 pM; in assay [1] it was 50 pM. Further, the koff was 0.000199 s⁻¹ in assay [2]; 0.00515 s⁻¹ in assay [3]; 0.000442 s⁻¹ in assay [4]; 0.0193 s⁻¹ in assay [5]; 4e-05 s⁻¹ in assay [1]. For the same molecule, the on-rate constant (kon) is 446000 M⁻¹ s⁻¹ in assay [2]; 206000 M⁻¹ s⁻¹ in assay [3]; 481000 M⁻¹ s⁻¹ in assay [4]; 408000 M⁻¹ s⁻¹ in assay [5]; 700000 M⁻¹ s⁻¹ in assay [1].

B9: AB2.1 (SA2107.01, CD276-040F10_IgG1_A1C) (antibody, V domains shown)
VH: QVQLVESGAEVKKPGASVKLSCKASGYTFSSYWMHWVRQAPGQRLEWMGEINPGNGHTNYNEKFKSRVTITVDKSASTAYMELSSLRSEDTAVYYCVADPRRPKVPTALFVYWGQGTLVTVSS
VL: DIQMTQSPSSVSASVGDRVTISCRASQGIGTWLAWYQQKPGKAPRLLIYAASSLDSGVPSRFSASGSGTDFTLTISSLQPEDFATYYCQQAINFPITFGQGTRLEIKR
notes: Tested unconjugated; also called SA2107 A121C
With B9, the dissociation constant Kd in assay [2] stood at 1060 pM; in assay [3] it was 21600 pM; in assay [4], 1050 pM; in assay [5], 42400 pM; in assay [1], 50 pM. Further, the koff in assay [2] amounted to 0.00047 s⁻¹; in assay [3] it was 0.00469 s⁻¹; in assay [4], 0.000504 s⁻¹; in assay [5], 0.0178 s⁻¹; in assay [1], 2e-05 s⁻¹. The kon in assay [2] is 442000 M⁻¹ s⁻¹; in assay [3] it was 217000 M⁻¹ s⁻¹; in assay [4] it was 480000 M⁻¹ s⁻¹; in assay [5] it was 420000 M⁻¹ s⁻¹; in assay [1], 500000 M⁻¹ s⁻¹.
